Test results published in publication doi:10.1101/521369 (bioRxiv, 2019).

Target: T1, Alexa488-PLCβ1 (purified PLCβ1a) (UniProt P10687 1-1216, Alexa488 on the N-terminus)
T1 sequence: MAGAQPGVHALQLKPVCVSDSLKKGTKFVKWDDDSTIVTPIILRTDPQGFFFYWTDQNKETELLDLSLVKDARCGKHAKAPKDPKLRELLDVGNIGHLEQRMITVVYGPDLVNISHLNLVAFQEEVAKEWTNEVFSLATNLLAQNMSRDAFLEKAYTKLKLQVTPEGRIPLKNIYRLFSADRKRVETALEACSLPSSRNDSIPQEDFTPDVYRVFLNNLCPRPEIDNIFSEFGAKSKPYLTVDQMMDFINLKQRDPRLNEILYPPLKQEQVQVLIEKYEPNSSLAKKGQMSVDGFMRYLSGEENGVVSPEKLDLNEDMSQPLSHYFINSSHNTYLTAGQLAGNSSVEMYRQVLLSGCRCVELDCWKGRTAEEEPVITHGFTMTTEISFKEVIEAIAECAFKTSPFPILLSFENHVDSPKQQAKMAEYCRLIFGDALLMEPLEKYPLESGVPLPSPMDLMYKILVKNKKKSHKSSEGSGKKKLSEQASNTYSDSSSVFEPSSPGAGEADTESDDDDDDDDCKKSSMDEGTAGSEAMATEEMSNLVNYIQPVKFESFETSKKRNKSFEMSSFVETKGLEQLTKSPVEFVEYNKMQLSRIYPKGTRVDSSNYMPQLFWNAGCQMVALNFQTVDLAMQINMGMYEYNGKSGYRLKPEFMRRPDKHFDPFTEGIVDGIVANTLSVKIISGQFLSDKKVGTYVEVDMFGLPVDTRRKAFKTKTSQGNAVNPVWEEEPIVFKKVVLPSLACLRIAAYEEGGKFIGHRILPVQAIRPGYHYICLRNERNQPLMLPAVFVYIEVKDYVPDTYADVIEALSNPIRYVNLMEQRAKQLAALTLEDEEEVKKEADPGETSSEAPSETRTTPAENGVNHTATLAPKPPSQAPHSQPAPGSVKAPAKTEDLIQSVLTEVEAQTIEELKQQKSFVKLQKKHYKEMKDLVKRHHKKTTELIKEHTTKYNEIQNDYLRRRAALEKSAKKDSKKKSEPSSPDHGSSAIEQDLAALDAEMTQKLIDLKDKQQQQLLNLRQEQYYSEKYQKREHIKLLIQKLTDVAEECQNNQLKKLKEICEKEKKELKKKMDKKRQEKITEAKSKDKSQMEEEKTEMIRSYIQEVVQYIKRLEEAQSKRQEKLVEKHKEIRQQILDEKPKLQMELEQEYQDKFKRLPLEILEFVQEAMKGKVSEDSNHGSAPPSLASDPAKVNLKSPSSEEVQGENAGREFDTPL
Test: other fluorescence titration

Kd: 27 ± 5 nM
B1: Alexa594-eIF5A (purified) (natural protein)
chain: not shown
modifications: Alexa594 on the N-terminus
